# Assay results from PMC2396876 (The EMBO Journal, 2008).
# Values joined by “and” are separate entries in the source; they are usually repeats but may differ in a detail not shown here. Equal values may be shown once.
# B1: UspA1^(527–665) M586A/A588Q (domain or fragment, Moraxella catarrhalis (strain MX2), UniProt Q9XD56 527-665, looked up)
# chain: ASSANTDRIATAELGIAENKKDAQIAKAQANENKDGIAKNQADIQLHDKKITNLGILHSAVQRAVGNNTQGVATNKADIAKNQADIANNIKNIYELAQQQDQHSSDIKTLAKVSAANTDRIAKNKAEADASFETLTKNQ
# Legend:
# [1] = target: N‐CEACAM1, the N‐terminal domain of human carcinoembryonic antigen‐related cell adhesion molecule 1 (human); assay: AUC
# [2] = target: UspA1^(527–665), recombinant fragment of the Moraxella catarrhalis MX2 adhesin UspA1 (Moraxella catarrhalis (strain MX2)); assay: AUC
# [3] = target: UspA1^(527–665), recombinant fragment of the Moraxella catarrhalis MX2 adhesin UspA1 (Moraxella catarrhalis (strain MX2)); assay: ITC
# [4] = target: UspA1^(527–665) A568Q (Moraxella catarrhalis (strain MX2)); assay: western blot of oligomers
# [5] = target: UspA1^(527–665) A588Q (Moraxella catarrhalis (strain MX2)); assay: western blot of oligomers
# [6] = target: UspA1^(527–665) A590Q (Moraxella catarrhalis (strain MX2)); assay: western blot of oligomers
# [7] = target: UspA1^(527–665) L583A (Moraxella catarrhalis (strain MX2)); assay: western blot of oligomers
# [8] = target: UspA1^(527–665) M586A (Moraxella catarrhalis (strain MX2)); assay: western blot of oligomers
# [9] = target: UspA1^(527–665), recombinant fragment of the Moraxella catarrhalis MX2 adhesin UspA1 (Moraxella catarrhalis (strain MX2)); assay: crystal structure
# [10] = target: UspA1^(527–665) M586A (Moraxella catarrhalis (strain MX2)); assay: far-Western, overlay or dot blot
# [11] = target: UspA1^(527–665) M586A/A588Q (Moraxella catarrhalis (strain MX2)) (UniProt Q9XD56); assay: far-Western, overlay or dot blot
# [12] = target: the molecule itself; assay: western blot of oligomers
molecule,measurement,setting,value
"N‐CEACAM1, the N‐terminal domain of human carcinoembryonic antigen‐related cell adhesion molecule 1 (domain or fragment)",stoichiometry N (chains in the oligomer),[1],2
same,stoichiometry N (N‐CEACAM1 per UspA1^(527–665) trimer),[2],2
same,Kd,[3],35 nM
same,stoichiometry N (N‐CEACAM1 per UspA1^(527–665) trimer),[3],2.1 and 1.9
UspA1^(527–665) A568Q (domain or fragment),stoichiometry N (chains in the oligomer),[4],3
UspA1^(527–665) A588Q (domain or fragment),stoichiometry N (chains in the oligomer),[5],3
UspA1^(527–665) A590Q (domain or fragment),stoichiometry N (chains in the oligomer),[6],3
UspA1^(527–665) L583A (domain or fragment),stoichiometry N (chains in the oligomer),[7],3
UspA1^(527–665) M586A (domain or fragment),stoichiometry N (chains in the oligomer),[8],3
"UspA1^(527–665), recombinant fragment of the Moraxella catarrhalis MX2 adhesin UspA1 (domain or fragment)",stoichiometry N (chains in the oligomer),[9],3
same,stoichiometry N (chains in the oligomer),[2],3
soluble CEACAM1‐Fc receptor (from UniProt P13688 35-428) (Fc fusion),"decrease in CEACAM1 binding (densitometry, against native UspA1^(527–665))",[10],14.8%
same,"decrease in CEACAM1 binding (densitometry, against native UspA1^(527–665))",[11],90.4%
B1,stoichiometry N,[12],3 chains in the oligomer
